From patent publication US20090298167A1 (Pfizer, published 2009)
Changes are numbered by the printed parent chain. In names and notes the source's numbering stands.

B1: AbP (antibody, human IgG1, V domains shown)
VH: QVQLQESGPGLVKPSETLSLTCAVSGYSISSGYYWGWIRQPPGKGLEWIGSISHTGNTYYNPPLKSRVTISVDTSKNQFSLKLSSVTAADTAVYYCARGGGISRPEYWGQGTLVTVSS
VL: SSELTQDPAVSVALGQTVRITCQGDSLRTYYASWYQQKPGQAPVLVIYGKHKRPSGIPDRFSGSSSGNTASLTITGAQAEDEADYYCVSRSAKGNPHVLFGGGTQLTVL
notes: Human IgG1 triple-mutant (L234A, L235A, G237A); Framework limits derived; also called VHP/VL20; VHPTM/VL20
B2: AbT (antibody, human IgG1, V domains shown)
VH: B1 VH
VL: B1 VL with S89A, A92N
notes: Human IgG1 triple-mutant (L234A, L235A, G237A); Framework limits derived; also called VHP/VL9; VHPTM/VL9
B3: AbS (antibody, human IgG1, V domains shown)
VH: B1 VH
VL: B1 VL with V88M, A92I, K93W
notes: Human IgG1 triple-mutant (L234A, L235A, G237A); Framework limits derived; also called VHP/VL6; VHPTM/VL6
B4: AbR (antibody, human IgG1, V domains shown)
VH: B1 VH with G99F, G100M, I102F, S103G
VL: B1 VL with S89T, A92V
notes: Purified form: human IgG1 double-mutant (L234A, G237A); Framework limits derived; also called VH3/VL18; VH3DM/VL18
B5: parental 18A5 antibody (antibody, V domains shown)
VH: B1 VH with P14T, Q110K
VL: SSELTQDPPVSVALGQTVTLTCQGDSLRTYYASWYQQKSGQAPILLLYGKHKRPSGIPDRFSGSTSGDTASLTITGAQAEDEADYYCNSRDSSGNPHVLFGGGTQLTVL

Molecular target: T1, human IL-21R expressed on cells (human, UniProt Q9HBE5 20-538)
Assay: cell-based or functional assay

T1 sequence (Q9HBE5 20-538 limits assumed): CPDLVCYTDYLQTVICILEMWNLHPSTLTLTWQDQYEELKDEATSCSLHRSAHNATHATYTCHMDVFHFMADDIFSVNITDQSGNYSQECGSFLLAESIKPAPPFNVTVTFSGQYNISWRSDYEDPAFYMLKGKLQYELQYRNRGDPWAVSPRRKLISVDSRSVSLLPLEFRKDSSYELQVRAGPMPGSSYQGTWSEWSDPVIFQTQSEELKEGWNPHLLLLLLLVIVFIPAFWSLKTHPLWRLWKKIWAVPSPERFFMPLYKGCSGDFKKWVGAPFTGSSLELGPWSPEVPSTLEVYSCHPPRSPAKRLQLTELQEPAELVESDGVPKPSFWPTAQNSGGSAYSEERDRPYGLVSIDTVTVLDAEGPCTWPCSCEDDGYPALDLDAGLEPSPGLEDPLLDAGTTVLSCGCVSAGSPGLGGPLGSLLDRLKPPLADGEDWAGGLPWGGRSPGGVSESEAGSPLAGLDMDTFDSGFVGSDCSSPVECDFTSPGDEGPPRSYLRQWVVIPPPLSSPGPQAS

| Binder | Human IL-21R-BaF3 Proliferation IC50 [nM] | Human IL-21R-TF1 Proliferation IC50 [nM] |
| --- | --- | --- |
| B1 | 0.75 | 3.48 |
| B2 | 0.67 | 3.26 |
| B3 | 1.53 | 5 |
| B4 | 0.87 | 3.94 |

Molecular target: T2, murine IL-21R expressed on cells (murine, UniProt Q9JHX3 20-529)
Assay: cell-based or functional assay

T2 sequence (Q9JHX3 20-529 limits assumed): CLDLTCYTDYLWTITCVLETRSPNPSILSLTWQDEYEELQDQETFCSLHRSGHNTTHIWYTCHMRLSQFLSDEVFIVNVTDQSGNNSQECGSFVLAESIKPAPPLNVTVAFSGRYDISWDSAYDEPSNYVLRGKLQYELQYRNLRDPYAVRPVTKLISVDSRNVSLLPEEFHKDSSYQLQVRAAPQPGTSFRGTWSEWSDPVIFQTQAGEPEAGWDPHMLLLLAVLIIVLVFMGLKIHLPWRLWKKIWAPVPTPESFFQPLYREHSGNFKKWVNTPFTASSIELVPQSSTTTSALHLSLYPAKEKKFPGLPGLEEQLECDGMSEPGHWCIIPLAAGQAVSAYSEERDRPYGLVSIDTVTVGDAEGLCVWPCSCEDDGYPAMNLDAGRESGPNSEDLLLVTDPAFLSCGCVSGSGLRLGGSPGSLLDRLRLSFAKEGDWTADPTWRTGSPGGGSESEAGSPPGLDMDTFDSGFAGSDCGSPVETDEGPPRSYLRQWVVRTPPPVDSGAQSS

| Binder | Murine IL-21R-BaF3 Proliferation IC50 [nM] |
| --- | --- |
| B1 | 0.03 |
| B2 | 0.093 |
| B3 | 0.04 |
| B4 | 0.302 |

Molecular target: T1, human IL-21R expressed on cells
Assay: cell-based or functional assay
Remark: another data set of the same source

| Binder | Human IL-21R-BaF3 Neutralization IC50 [nM] | Human IL-21R-TF1 Neutralization IC50 [nM] |
| --- | --- | --- |
| B5 | 1.71 | 14 |
| B2 | 0.3 | 2.32 |
| B3 | 0.68 | 6.67 |
| B4 | 0.56 | 1.63 |

Molecular target: T2, murine IL-21R expressed on cells
Assay: cell-based or functional assay
Remark: another data set of the same source

| Binder | Murine IL-21R-BaF3 Neutralization IC50 [nM] |
| --- | --- |
| B5 | 177 |
| B2 | 0.05 |
| B3 | 0.04 |
| B4 | 0.34 |

Molecular target: T1, human IL-21R expressed on cells
Assay: cell-based or functional assay
Remark: another data set of the same source

| Binder | Neutralization of B cell proliferation IC50 [nM] |
| --- | --- |
| B5 | 1.86 |
| B2 | 0.14 |
| B3 | 0.44 |
| B4 | 0.22 |

Molecular target: T1, human IL-21R expressed on cells
Assay: cell-based or functional assay
Remark: another data set of the same source

| Binder | Neutralization of T cell Proliferation IC50 (nM), human primary CD4+ T cells [nM] |
| --- | --- |
| B1 | 0.02 |
| B5 | 1.42 |
| B2 | 0.03 |
| B3 | 0.06 |
| B4 | 0.04 |

Molecular target: T2, murine IL-21R expressed on cells
Assay: cell-based or functional assay
Remark: another data set of the same source

| Binder | Neutralization of T cell Proliferation IC50 (nM), murine primary CD8+ T cells [nM] |
| --- | --- |
| B5 | > 85 |
| B2 | 0.61 |
| B3 | 0.02 |
| B4 | 0.13 |

Molecular target: rat IL-21R expressed on cells (rat)
Assay: cell-based or functional assay

| Binder | IC50 (nM) experiment 1, rat T cell proliferation [nM] | IC50 (nM) experiment 2, rat T cell proliferation [nM] |
| --- | --- | --- |
| B3 | 36 | 27.1 |

Molecular target: T1, human IL-21R expressed on cells
Assay: cell ELISA on transfected CHO cells, 13 nM IgG
Method: (§1) A subset of binding proteins was tested for binding to rat, cynomolgus monkey, human IL-21R, or human IL-2R-γ common subunit expressed transiently on the surfaces of CHO-PA-Dukx cells. Cells were transfected 48 hr prior to the assay. On the day of the assay, cells were washed gently 5× in PBS containing 0.9 mM CaCl₂ and 0.45 mM MgCl₂ (PBS/CaMg) on an automated plate washer (Titertek, Huntsville, Ala.), and blocked for 1 hr at RT in PBS/CaMg/5% nonfat dry milk. Conditioned media from transiently expressed anti-IL-21R IgGs were serially diluted in blocking buffer and added to the cells in the blocked plates for 1 hr at RT. Cells were washed 5× with PBS/CaMg and then incubated with horseradish peroxidase-conjugated anti-human IgG for 1 hr at RT. Cells were then washed 10× in PBS/CaMg and all of the wash buffer was removed. Cells were incubated with 100 μl TMB until the color reaction reached saturation, stopped with 100 μl of 0.18 M H₂SO₄, and read at A450 on a Perkin Elmer ENVISION™ plate reader.

| Binder | A450 at 13 nM Ab in cell ELISA [A450] |
| --- | --- |
| B1 | 1.31 |
| B2 | 1.08 |
| B3 | 1.02 |
| B4 | 1.33 |

Molecular target: T3, rat IL-21R expressed on cells (rat)
T3 construct: whole, on cells; Transiently transfected CHO-PA-Dukx cells
Assay: cell ELISA on transfected CHO cells, 13 nM IgG
Method: as §1

| Binder | A450 at 13 nM Ab in cell ELISA [A450] |
| --- | --- |
| B1 | 1.03 |
| B2 | 0.994 |
| B3 | 1.17 |
| B4 | 1.11 |

Molecular target: T4, cynomolgus monkey IL-21R expressed on CHO cells (cynomolgus monkey)
T4 construct: whole, on cells
Assay: cell ELISA on transfected CHO cells, 13 nM IgG
Method: as §1

| Binder | A450 at 13 nM Ab in cell ELISA [A450] |
| --- | --- |
| B1 | 1.31 |
| B2 | 1.22 |
| B3 | 1.22 |
| B4 | 1.35 |

Molecular target: T5, human gamma common chain expressed on CHO cells (human, UniProt P31785 23-369)
T5 construct: whole, on cells; Control protein; also called human IL-2R-γ common subunit; human gamma (γ) common chain
T5 sequence (looked up): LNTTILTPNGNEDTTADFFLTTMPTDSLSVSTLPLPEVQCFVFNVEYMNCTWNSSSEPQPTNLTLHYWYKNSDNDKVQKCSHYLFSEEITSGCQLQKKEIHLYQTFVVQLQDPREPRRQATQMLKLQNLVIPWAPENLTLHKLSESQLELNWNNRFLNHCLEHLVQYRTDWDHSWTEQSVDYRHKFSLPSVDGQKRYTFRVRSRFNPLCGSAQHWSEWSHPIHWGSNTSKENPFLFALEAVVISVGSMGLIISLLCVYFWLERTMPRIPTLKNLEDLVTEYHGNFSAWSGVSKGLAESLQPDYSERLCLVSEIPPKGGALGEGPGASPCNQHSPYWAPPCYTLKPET
Assay: cell ELISA on transfected CHO cells, 13 nM IgG
Method: as §1

| Binder | A450 at 13 nM Ab in cell ELISA [A450] |
| --- | --- |
| B1 | 0.112 |
| B2 | 0.102 |
| B3 | 0.118 |
| B4 | 0.109 |

Molecular target: T6, human IL-2Rβ (human, UniProt P14784 27-239)
T6 construct: Bought
T6 sequence (looked up): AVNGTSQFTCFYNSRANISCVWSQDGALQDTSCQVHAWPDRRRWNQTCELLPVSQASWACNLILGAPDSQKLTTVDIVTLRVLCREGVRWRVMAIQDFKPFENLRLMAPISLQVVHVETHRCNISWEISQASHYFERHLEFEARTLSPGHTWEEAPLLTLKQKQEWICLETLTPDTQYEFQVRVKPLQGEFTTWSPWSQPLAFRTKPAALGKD
Assay: BIACORE: antibody captured on anti-human IgG, 50 nM analyte injected
Method: (§2) The specificity of binding of a subset of transiently expressed anti-IL-21R binding proteins (here antibodies) was tested on a BIACORE™ 2000 surface plasmon resonance instrument. Anti-human-IgG, anti-murine immunoglobulin antibodies, and murine IL-21R-H/F were immobilized onto a research-grade carboxymethyl-dextran chip (CM5) using standard amine coupling. The sensor chip surface was activated with EDC/NHS for 7 min at a flow rate of 20 μl/min. The first flow cell was used as reference surface to correct for bulk refractive index, matrix effects, and nonspecific binding. […] Remaining activated groups were blocked with 1.0 M ethanolamine (pH 8.0). The molecular weights of the anti-human IgG and the anti-murine IgG were both 150 kD, and the molecular weight of the IL-21R monomer was 27 kD.
(§3) Conditioned media containing anti-IL-21R antibodies and antibody controls (murine anti-human IL-2Rβ and murine anti-human IL-4R(R&D Systems, Minneapolis, Minn.); human anti-human IL-13 (Wyeth, Cambridge, Mass.)) were diluted in HBS/EP buffer supplemented with 0.2% bovine serum and injected onto all four flow cells of the BIACORE™ chip, capturing 500-700 (RU) of antibody on the species-appropriate capture antibody. Following a 5 sec washing period, 50 nM solutions of a positive control protein (murine IL-21R-H/F), two human proteins related to IL-21R (human IL-2Rβ and human sIL-4R(R&D Systems)), or an unrelated His/FLAG-tagged protein (human IL-13-H/F), were injected over the captured antibodies on the chip. The association and dissociation phases were monitored for 120 and 180 sec, respectively, followed by two 5 μl injections of glycine (pH 1.5) to regenerate a fully active capturing surface. All binding experiments were done at 25° C. in HBS/EP buffer. Blank and buffer effects were subtracted for each sensorgram using double referencing.

| Binder | binding result |
| --- | --- |
| B1 | no binding (tested: 50 nM) |
| B2 | no binding (tested: 50 nM) |
| B3 | no binding (tested: 50 nM) |
| B4 | no binding (tested: 50 nM) |

Molecular target: T7, human soluble IL-4R (human, UniProt P24394 26-231, limits assumed)
T7 construct: soluble; also called human sIL-4R
Assay: as above
Method: as §2, §3

T7 sequence (P24394 26-231 limits assumed): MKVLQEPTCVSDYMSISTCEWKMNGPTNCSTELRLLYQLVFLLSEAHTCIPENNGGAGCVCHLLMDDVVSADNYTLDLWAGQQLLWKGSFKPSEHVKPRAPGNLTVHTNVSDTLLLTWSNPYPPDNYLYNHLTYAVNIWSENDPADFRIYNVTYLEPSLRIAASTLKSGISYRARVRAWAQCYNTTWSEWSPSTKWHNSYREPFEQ

| Binder | binding result |
| --- | --- |
| B1 | no binding (tested: 50 nM) |
| B2 | no binding (tested: 50 nM) |
| B3 | no binding (tested: 50 nM) |
| B4 | no binding (tested: 50 nM) |

Molecular target: T8, human IL-13-His/FLAG (human, UniProt P35225 35-146, limits assumed)
T8 construct: Unrelated His/FLAG-tagged control; also called human IL-13-H/F
Assay: as above
Method: as §2, §3

T8 sequence (P35225 35-146 limits assumed): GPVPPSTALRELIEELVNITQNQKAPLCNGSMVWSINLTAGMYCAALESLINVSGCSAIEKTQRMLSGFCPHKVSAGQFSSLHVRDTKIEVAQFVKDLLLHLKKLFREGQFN

| Binder | binding result |
| --- | --- |
| B1 | no binding (tested: 50 nM) |
| B2 | no binding (tested: 50 nM) |
| B3 | no binding (tested: 50 nM) |
| B4 | no binding (tested: 50 nM) |
